Assay results from paper PMC12959407 (Science Advances, 2026).
“And” between values parts separate entries of the source, which are not always exact repeats. Identical values can stand only once.

Target: the molecule itself
Test: cryo-EM structure; single-particle cryo-EM of purified proteins; mHsp60 10 uM and mHsp10 8 uM mixed in 20 mM tris-HCl pH 7.7, 20 mM KCl, 10 mM MgCl2, 2 mM ATP; incubated 30 s to 30 min before vitrification

B1: recombinant WT human mitochondrial Hsp60 (mHsp60), mature form (natural protein)
chain: GSAKDVKFGADARALMLQGVDLLADAVAVTMGPKGRTVIIEQSWGSPKVTKDGVTVAKSIDLKDKYKNIGAKLVQDVANNTNEEAGDGTTTATVLARSIAKEGFEKISKGANPVEIRRGVMLAVDAVIAELKKQSKPVTTPEEIAQVATISANGDKEIGNIISDAMKKVGRKGVITVKDGKTLNDELEIIEGMKFDRGYISPYFINTSKGQKCEFQDAYVLLSEKKISSIQSIVPALEIANAHRKPLVIIAEDVDGEALSTLVLNRLKVGLQVVAVKAPGFGDNRKNQLKDMAIATGGAVFGEEGLTLNLEDVQPHDLGKVGEVIVTKDDAMLLKGKGDKAQIEKRIQEIIEQLDVTTSEYEKEKLNERLAKLSDGVAVLKVGGTSDVEVNEKKDRVTDALNATRAAVEEGIVLGGGCALLRCIPALDSLTPANEDQKIGIEIIKRTLKIPAMTIAKNAGVEGSLIVEKIMQSSSEVGYDAMAGDFVNMVEKGIIDPTKVVRTALLDAAGVASLLTTAEVVVTEIPKEEKDPGMGAMGGMGGGMGGGMF
notes: additional Gly-Ser kept at the N terminus after TEV cleavage; human mitochondrial Hsp60 without the 26-residue mitochondrial targeting signal of the 573-residue precursor; mature protein of 547 residues beginning with AKDVKFG; numbers count on: the mature protein; Forms heptameric rings; seven copies in single rings and half-footballs, fourteen in double rings, bullets and footballs; also called …
- stoichiometry N: 7 and 14
